According to the RNAGym collection of RNA variant scans (doi:10.1021/acssynbio.7b00057):

B1: Pistol ribozyme (parent)
chain: GGGUCGUUGUUCCAUAAUCGCGUGGAUAUGGCACGCAAGUUUCUACCGGGCACCGUAAAUGUCCGACUGGAGCCGUUCGGGCGGCUAUAAACAGACCUCAGGCCCGAAGCGUGGCGGCACCUGCCGCCGGUGGUAAAAAAGAUCGGAAGAGCACACGUCU

Variants of: B1
Assay: aptazyme ON/OFF ratio, guanine; higher = stronger switching; co-transcriptional cleavage with and without guanine

Row | Variant | aptazyme ON/OFF ratio
1 | U7A U8C U10A U11C C12A C13U | 1.08
2 | U7A U8C U10A U11A C12A C13G | 1.15
3 | U7A U8C U10A U11A C12A C13U | 1.17
4 | U7A U8C U10A U11A C12A C13A | 1.07
5 | U7A U8C U10C U11G C12A | 1.2
6 | U7A U8C U10C U11G C12G | 1.25
7 | U7A U8C U10C U11G C12U | 1.3
8 | U7A U8C U10G U11C C12U C13A | 1.36
9 | U7A U8C U10G U11C C12U C13G | 1.29
10 | U7A U8C U10G U11C C12U C13U | 1.51
11 | U7A U8C U10C | 2.24
12 | U7A U8C U10G | 1.47
13 | U7A U8C U10A | 1.06
14 | U7A U8C G9U U11A C12A C13A | 1.42
15 | U7A U8C G9U U11A C12A C13U | 1.33
16 | U7A U8C G9U U11A C12A C13G | 1.24
17 | U7A U8C U10G U11G C12G C13A | 1.08
18 | U7A U8C U10G U11G C12G C13U | 1.4
19 | U7A U8C U10G U11G C12G C13G | 1.19
20 | U7A U8C G9U U11G | 1.29
21 | U7A U8C G9U U11A | 1.19
22 | U7A U8C G9U U11C | 1.1
23 | U7A U8C U10G U11G C12U C13A | 1.23
24 | U7A U8C U10G U11G C12U C13G | 1.23

Row | Variant | aptazyme ON/OFF ratio
25 | U7A U8C U10G U11G C12U C13U | 1.24
26 | U7A U8C U10C C12G C13G | 1.22
27 | U7A U8C U10C C12G C13U | 1.41
28 | U7A U8C U10C C12G C13A | 1.34
29 | U7A U8C U10C U11C C12A C13A | 1.09
30 | U7A U8C U10C U11C C12A C13G | 1.16
31 | U7A U8C U10C U11C C12A C13U | 1.16
32 | U7A U8C U10G U11A C13U | 1.09
33 | U7A U8C U10G U11A C13A | 1.12
34 | U7A U8C U10G U11A C13G | 1.2
35 | U7A U8C G9U U11C C12G | 1.27
36 | U7A U8C G9U U11C C12U | 1.15
37 | U7A U8C G9U U11C C12A | 1.28
38 | U7A U8C G9U U10C U11C C12U C13U | 1.1
39 | U7A U8C G9U U10C U11C C12U C13G | 1.08
40 | U7A U8C G9U U11G C12A C13G | 1.27
41 | U7A U8C G9U U11G C12A C13U | 1.17
42 | U7A U8C G9U U11G C12A C13A | 1.22
43 | U7A U8C U10A U11G C12U | 1.27
44 | U7A U8C U10A U11G C12G | 1.32
45 | U7A U8C U10A U11G C12A | 1.1
46 | U7A U8C G9U U10G U11A C12G C13U | 1.21
47 | U7A U8C G9U U10G U11A C12G C13A | 1.22
48 | U7A U8C G9U U10G U11A C12G C13G | 0.993

Row | Variant | aptazyme ON/OFF ratio
49 | U7A U8C U10A C12G | 1.18
50 | U7A U8C U10A C12A | 1.24
51 | U7A U8C U10A C12U | 1.1
52 | U7A U8C U10C C12G | 1.46
53 | U7A U8C U10C C12A | 1.32
54 | U7A U8C U10C C12U | 3.63
55 | U7A U8C G9U U10G U11G C12G C13A | 1.15
56 | U7A U8C G9U U10G U11G C12G C13G | 1.22
57 | U7A U8C G9U U10G U11G C12G C13U | 1.29
58 | U7A U8C G9U U10G U11G C13G | 1.14
59 | U7A U8C G9U U10G U11G C13U | 1.17
60 | U7A U8C G9U U10G U11G C13A | 1.18
61 | U7A U8C U10A U11A C12U C13U | 1.17
62 | U7A U8C U10A U11A C12U C13A | 1.18
63 | U7A U8C U10A U11A C12U C13G | 1.33
64 | U7A U8C U10A U11G C12G C13A | 1.36
65 | U7A U8C U10A U11G C12G C13U | 1.45
66 | U7A U8C U10A U11G C12G C13G | 1.28
67 | U7A U8C U10A U11A C13A | 1.2
68 | U7A U8C U10A U11A C13U | 1.12
69 | U7A U8C U10A U11A C13G | 1.29
70 | U7A U8C G9U U10G U11C C12A C13A | 1.14
71 | U7A U8C G9U U10G U11C C12A C13U | 1.26
72 | U7A U8C G9U U10G U11C C12A C13G | 1.15

Row | Variant | aptazyme ON/OFF ratio
73 | U7A U8C U10G C12A C13A | 1.13
74 | U7A U8C U10G C12A C13U | 1.15
75 | U7A U8C U10G C12A C13G | 1.05
76 | U7A U8C G9U U11C C12A C13G | 1.1
77 | U7A U8C G9U U11C C12A C13A | 1.18
78 | U7A U8C G9U U11C C12A C13U | 1.2
79 | U7A U8C U10G C12G C13A | 1.09
80 | U7A U8C U10G C12G C13G | 1.11
81 | U7A U8C U10G C12G C13U | 1.19
82 | U7A U8C U10C U11C C12A | 1.14
83 | U7A U8C U10C U11C C12U | 1.04
84 | U7A U8C U10C U11C C12G | 1.19
85 | U7A U8C U10C U11A C12G | 1.28
86 | U7A U8C U10C U11A C12U | 1.19
87 | U7A U8C U10C U11A C12A | 1.29
88 | U7A U8C G9U U10C U11C C13U | 1.03
89 | U7A U8C G9U U10C U11C C13A | 1.01
90 | U7A U8C G9U U10C U11C C13G | 1.02
91 | U7A U8C G9U U10G U11C C12U C13G | 1.19
92 | U7A U8C G9U U10G U11C C12U C13U | 1.09
93 | U7A U8C G9U U10G U11C C12U C13A | 1.2
94 | U7A U8C U10G U11G C13A | 1.2
95 | U7A U8C U10G U11G C13U | 1.39
96 | U7A U8C U10G U11G C13G | 1.2

Row | Variant | aptazyme ON/OFF ratio
97 | U7A U8C U10A U11C C13G | 1.05
98 | U7A U8C U10A U11C C13U | 1.02
99 | U7A U8C U10A U11C C13A | 1.05
100 | U7A U8C U10G U11A | 1.14
101 | U7A U8C U10G U11G | 1.4
102 | U7A U8C U10G U11C | 1.74
103 | U7A U8C G9U U10C U11G C13U | 1.25
104 | U7A U8C G9U U10C U11G C13A | 1.17
105 | U7A U8C G9U U10C U11G C13G | 1.31
106 | U7A U8C U10G U11A C12A C13G | 1.15
107 | U7A U8C U10G U11A C12A C13A | 1.28
108 | U7A U8C U10G U11A C12A C13U | 1.32
109 | U7A U8C U11A | 1.14
110 | U7A U8C G9U U10G U11A C13U | 1.06
111 | U7A U8C G9U U10G U11A C13G | 1.08
112 | U7A U8C G9U U10G U11A C13A | 1.04
113 | U7A U8C G9U U10C U11G C12U | 1.17
114 | U7A U8C G9U U10C U11G C12G | 1.06
115 | U7A U8C G9U U10C U11G C12A | 1.04
116 | U7A U8C G9U U10C U11G C12A C13G | 1.11
117 | U7A U8C G9U U10C U11G C12A C13U | 1.27
118 | U7A U8C G9U U10C U11G C12A C13A | 1.13
119 | U7A U8C U10A U11G C13A | 1.26
120 | U7A U8C U10A U11G C13U | 1.31

Row | Variant | aptazyme ON/OFF ratio
121 | U7A U8C U10A U11G C13G | 1.24
122 | U7A U8C G9U U11G C12U C13G | 1.14
123 | U7A U8C G9U U11G C12U C13A | 1.22
124 | U7A U8C G9U U11G C12U C13U | 1.28
125 | U7A U8C G9U U11A C12U C13U | 1.16
126 | U7A U8C G9U U11A C12U C13A | 1.37
127 | U7A U8C G9U U11A C12U C13G | 1.22
128 | U7A U8C G9U U11C C12G C13U | 1.18
129 | U7A U8C G9U U11C C12G C13G | 1.05
130 | U7A U8C G9U U11C C12G C13A | 1.13
131 | U7A U8C U10A C12A C13G | 1.15
132 | U7A U8C U10A C12A C13U | 1.22
133 | U7A U8C U10A C12A C13A | 1.22
134 | U7A U8C U10C U11G C12G C13G | 1.24
135 | U7A U8C U10C U11G C12G C13A | 1.26
136 | U7A U8C U10C U11G C12G C13U | 1.14
137 | U7A U8C U10A U11G C12U C13A | 1.28
138 | U7A U8C U10A U11G C12U C13G | 1.16
139 | U7A U8C U10A U11G C12U C13U | 1.26
140 | U7A U8C G9U U11A C13A | 1.13
141 | U7A U8C G9U U11A C13G | 1.07
142 | U7A U8C G9U U11A C13U | 1.28
143 | U7A U8C U10A U11C C12A | 1.09
144 | U7A U8C U10A U11C C12U | 1.03

Row | Variant | aptazyme ON/OFF ratio
145 | U7A U8C U10A U11C C12G | 1.1
146 | U7A U8C U10A C12G C13A | 1.09
147 | U7A U8C U10A C12G C13U | 1.26
148 | U7A U8C U10A C12G C13G | 1.23
149 | U7A U8C G9U U11C C13U | 1.05
150 | U7A U8C G9U U11C C13A | 1.04
151 | U7A U8C G9U U11C C13G | 1.03
152 | U7A U8C G9U U11G C12G | 1.16
153 | U7A U8C G9U U11G C12U | 1.35
154 | U7A U8C G9U U11G C12A | 1.09
155 | U7A U8C U11A C12G C13G | 1.1
156 | U7A U8C U11A C12G C13A | 1.06
157 | U7A U8C U11A C12G C13U | 1.15
158 | U7A U8C U10G C13U | 1.31
159 | U7A U8C U10G C13A | 1.4
160 | U7A U8C U10G C13G | 1.24
161 | U7A U8C U10C U11A | 1.16
162 | U7A U8C U10C U11C | 1.04
163 | U7A U8C U10C U11G | 1.26
164 | U7A U8C G9U U10C U11G | 1.22
165 | U7A U8C G9U U11A C12G | 1.23
166 | U7A U8C G9U U11A C12A | 1.32
167 | U7A U8C G9U U11A C12U | 1.28
